Experimental data taken from patent US20250186614A1, “COMPACT DRUG RESPONSIVE DOMAINS FOR REGULATION OF FUNCTION/ABUNDANCE AND DELIVERY OF POLYPEPTIDE PAYLOADS” (OBSIDIAN THERAPEUTICS, INC., priority 2022, published 2025).
Where a chain is given by its changes, count along the chain named. In names and notes the source's numbering stands. Read-outs that look alike come from different tables or passages of the source.

What was measured:
Assay type in all cases: cell-based
HEK-293T cells = assay: Tacrolimus (FK506) response of FKBP13-AcGFP-mCherry constructs transiently transfected into HEK-293T cells, flow cytometry; conditions: for AcGFP stabilization / fluorescence signal in response to FK506: 0, 1 or 10 μM FK506, 24 hours; for Fold Change: tacrolimus response of FKBP13 DRD-AcGFP construct, Table 3
Excerpt: The DRD in FKBP13-039 was a wildtype (WT) FKBP13 (i.e., a 98 amino acid fragment of SEQ ID NO: 1). […] The FKBP13-043, FKBP13-044, and FKBP13-045 constructs included DRD-genic mutations D90G, M54A and M96V, respectively, and three binding site mutations (Q72R, Q84E, and A117H).

Jurkat cells [1] = assay: Tacrolimus dose response of FKBP13-AcGFP-mCherry constructs stably transduced into Jurkat cells, GFP MFI by flow cytometry; conditions: for Fold Change: tacrolimus dose response; for EC90 / Tacrolimus FC: tacrolimus, Table 14; for Tacrolimus FC: fold change
Outline: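 GFP geometric MFI was read by flow cytometry in mCherry+ cells and curve-fitted against tacrolimus dose. Cells were Jurkat E6-1, lentivirus-transduced with FKBP13-AcGFP-mCherry fusion constructs until 10-25% mCherry-positive on day 5 post-transduction.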

Jurkat cells [2] = assay: Sirolimus (rapamycin) dose response of FKBP13 constructs stably transduced into Jurkat cells, flow cytometry; conditions: rapamycin, Table 14; for Rapamycin FC: fold change
Protocol: Normalized EC50 values were calculated from the mCherry normalized GFP MFI values, which accounted for any differences in mCherry intensity between samples.

[3] = Example 4: dose response of FKBP constructs 160-255, Ec50, Ec90 and fold change (raw and normalized to mCherry); conditions: for FC (fold change): fold change during initial analysis
Protocol: Additional experiments were performed for constructs FKBP-160-292.

[4] = read-out: Tacrolimus EC90 (Norm), normalized
[5] = normalized, read-out: Rapamycin EC90 (Norm)
[6] = FKBP constructs 160-255, not normalized, read-out: EC90
[7] = normalized to mCherry, read-out: EC90 (Norm)

B1: FKBP-043: FKBP13 DRD Q72R, Q84E, A117H, D90G; SEQ ID NO: 6 (protein)
chain: HCPIKSRKGDVLHMHYTGKLEDGTEFDSSLPRNQPFVFSLGTGEVIKGWGQGLLGMCEGEKRKLVIPSELGYGERGHPPKIPGGATLVFEVELLKIER
modifications: Description of sequence: FKBP13-AcGFP-mCherry Fusion; Construct Name: FKBP-043; FKBP13 DRD in Construct : FKBP13 (mutated to match FKBP12 active site - Q72R Q84E A117H) (DRD - D90G)
HEK-293T cells; FIG. 1B
  AcGFP stabilization / fluorescence signal in response to FK506: increased more effectively
  DRD activity: had DRD activity
HEK-293T cells
  Fold Change: 26.5

B2: FKBP-044: FKBP13 DRD Q72R, Q84E, A117H, M54A; SEQ ID NO: 7 (protein)
chain: B1 chain with M14A, G50D
modifications: Description of sequence: FKBP13-AcGFP-mCherry Fusion; Construct Name: FKBP-044; FKBP13 DRD in Construct : FKBP13 (mutated to match FKBP12 active site - Q72R Q84E A117H) (DRD - M54A)
HEK-293T cells; FIG. 1B
  AcGFP stabilization / fluorescence signal in response to FK506: increased more effectively
HEK-293T cells
  Fold Change: 9.4
Jurkat cells [1]; Jurkat cells stably transduced (FIG. 4), Table 4
  Fold Change: 12.6
Jurkat cells [1]; Jurkat cells stably transduced (FIG. 10), Table 5
  Fold Change: 11.805
Jurkat cells [1]; tacrolimus top concentration 10 μM, 24 hr, FIG. 2
  EC50 and fold-change characteristics: best EC50 and fold-change characteristics

B3: FKBP-188 (protein)
chain: B1 chain with M14A, F38S, V45R, G50D, H77W
modifications: Description of sequence: Construct Name: FKBP-188; Mutation(s): Q72R Q84E A117W V85R DRD M54A F78S
Jurkat cells [1]; [4]
  EC90: 20.8 µM
Jurkat cells [1]; read-out: Tacrolimus EC90
  EC90: 16.6 µM
Jurkat cells [1]
  Tacrolimus FC: 20.5
Jurkat cells [2]; read-out: Rapamycin EC90
  EC90: 5.41 µM
Jurkat cells [2]
  Rapamycin FC: 2.6
Jurkat cells [2]; [5]
  EC90: 5.83 µM
[3]; [6]
  EC90: 16.6 µM
[3]
  FC (fold change): 20.5
[3]; [7]
  EC90: 20.8 µM

B4: FKBP-045: FKBP13 DRD Q72R, Q84E, A117H, M96V; SEQ ID NO: 8 (protein)
chain: B1 chain with G50D, M56V
modifications: Description of sequence: FKBP13-AcGFP-mCherry Fusion; Construct Name: FKBP-045; FKBP13 DRD in Construct : FKBP13 (mutated to match FKBP12 active site - Q72R Q84E A117H) (DRD - M96V)
HEK-293T cells; FIG. 1B
  AcGFP stabilization / fluorescence signal in response to FK506: increased more effectively
HEK-293T cells
  Fold Change: 23.2

B5: FKBP-040: FKBP13 DRD D90G; SEQ ID NO: 3 (protein)
chain: B1 chain with R32Q, E44Q, H77A
modifications: Description of sequence: FKBP13-AcGFP-mCherry Fusion; Construct Name: FKBP-040; FKBP13 DRD in Construct : FKBP13 (DRD - D90G)
HEK-293T cells
  Fold Change: 1

B6: FKBP-041: FKBP13 DRD M54A; SEQ ID NO: 4 (protein)
chain: B1 chain with M14A, R32Q, E44Q, G50D, H77A
modifications: Description of sequence: FKBP13-AcGFP-mCherry Fusion; Construct Name: FKBP-041; FKBP13 DRD in Construct : FKBP13 (DRD - M54A)
HEK-293T cells
  Fold Change: 7.8

B7: FKBP-039: FKBP13 (WT) fragment DRD-AcGFP-mCherry; SEQ ID NO: 2 (protein)
chain: B1 chain with R32Q, E44Q, G50D, H77A
modifications: Description of sequence: FKBP13-AcGFP-mCherry Fusion; Construct Name: FKBP-039; FKBP13 DRD in Construct : FKBP13 (WT)
HEK-293T cells
  Fold Change: 4.9

B8: FKBP-189 (protein)
chain: B1 chain with H13G, M14A, R32L, V45R, G50D, H77W
modifications: Description of sequence: Construct Name: FKBP-189; Mutation(s): Q72R Q84E A117W V85R DRD M54A H53G R72L
Jurkat cells [1]; [4]
  EC90: 30.1 µM
Jurkat cells [1]; read-out: Tacrolimus EC90
  EC90: 25.8 µM
Jurkat cells [1]
  Tacrolimus FC: 23
Jurkat cells [2]; read-out: Rapamycin EC90
  EC90: 5.47 µM
Jurkat cells [2]
  Rapamycin FC: 2.5
Jurkat cells [2]; [5]
  EC90: 5.53 µM
[3]; [6]
  EC90: 25.8 µM
[3]
  FC (fold change): 23.0
[3]; [7]
  EC90: 30.1 µM

B9: FKBP-042: FKBP13 DRD M96V; SEQ ID NO: 5 (protein)
chain: B1 chain with R32Q, E44Q, G50D, M56V, H77A
modifications: Description of sequence: FKBP13-AcGFP-mCherry Fusion; Construct Name: FKBP-042; FKBP13 DRD in Construct : FKBP13 (DRD - M96V)
HEK-293T cells
  Fold Change: 1.3
